Experimental data as given in US20240252614A1 (Pfizer, published 2024).

How the values were obtained:
PIV1052 [1] = biological target: T1, PIV1052 (PIV1); assay: BLI, 56C stress;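 further: binding of thermally stressed PIV1 F mutant supernatant to mAb on AHC biosensors for 5 min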
T1 construct: Q92C-G134C, A466V, S473V; also called PV1052
Description: (§1) The OCTET HTX (Sartorius, Gottingen, Germany) instrument was used to evaluate the expression and conformational integrity for each mutant. All measurements were conducted at 30° C. temperature in 96-well black plates (Corning, Corning, NY) with a final volume of 240 μL per well at a constant agitation rate of 1000 RPM.
(§2) Conformation integrity of PIV1 F protein mutants were evaluated by a thermal stress experiment. Crude cell culture supernatants were normalized based on the results of the titer quantitation and then incubated for 1 hour at room temperature and two higher temperatures. For the initial testing of PIV1 mutants, the two temperatures were 50° C. and 53° C. […] Anti-Human IgG Fc Capture (AHC) biosensors were first equilibrated in PB for before being dipped into more PB to establish the initial baseline. […] The mAb-bound biosensors were then dipped into the thermal stresses cell culture supernatants for 5 minutes.

PIV1053 [2] = biological target: T2, PIV1053 (PIV1); assay: BLI, 56C stress;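 further: binding of thermally stressed PIV1 F mutant supernatant to mAb on AHC biosensors for 5 min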
T2 construct: F113G, F114S, A466L, S473L, A480L, G134A
Description: as §1, §2

PIV1060 [3] = biological target: T3, PIV1060 (PIV1); assay: BLI, 56C stress;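 further: binding of thermally stressed PIV1 F mutant supernatant to mAb on AHC biosensors for 5 min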
T3 construct: Q92L, G134A, A466L, S473L, A480L
Description: as §1, §2

PIV1049 [4] = biological target: T4, PIV1049 (PIV1); assay: BLI, 56C stress;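 further: binding of thermally stressed PIV1 F mutant supernatant to mAb on AHC biosensors for 5 min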
T4 construct: Q92C-G134C, A466L, S473L
Description: as §1, §2

PIV1050 [5] = biological target: T5, PIV1050 (PIV1); assay: BLI, 56C stress
T5 construct: F113G, F114S, Q92C-G134C, A466V, S473V, A480V
Description: as §1, §2

PIV1061 [6] = biological target: T6, PIV1061 (PIV1); assay: BLI, 56C stress
T6 construct: Q92L, G134A, A466L, S473L
Description: as §1, §2

PIV1054 [7] = biological target: T7, PIV1054 (PIV1); assay: BLI, 56C stress
T7 construct: A466L, S473L, A480L, G134A
Description: as §1, §2

PIV1055 [8] = biological target: T8, PIV1055 (PIV1); assay: BLI, 56C stress
T8 construct: A466L, S473L, G134A
Description: as §1, §2

PIV1068 [9] = biological target: T9, PIV1068 (PIV1); assay: BLI, 56C stress
T9 construct: A466I, S473I, A480I, Q92L, G134A
Description: as §1, §2

PIV1067 [10] = biological target: T10, PIV1067 (PIV1); assay: BLI, 56C stress
T10 construct: F113G, F114S, Q92C-G134C, A466I, S473I, A480I
Description: as §1, §2

PIV1058 [11] = biological target: T11, PIV1058 (PIV1); assay: BLI, 56C stress
T11 construct: A466L, S473L, Q92A, G134A
Description: as §1, §2

PIV1059 [12] = biological target: T12, PIV1059 (PIV1); assay: BLI, 56C stress
T12 construct: F113G, F114S, A466L, S473L, A480L, G134A, Q92L
Description: as §1, §2

PIV1056 [13] = biological target: T13, PIV1056 (PIV1); assay: BLI, 56C stress
T13 construct: F113G, F114S, A466L, S473L, A480L, Q92A, G134A
Description: as §1, §2

PIV1048 [14] = biological target: T14, PIV1048 (PIV1); assay: BLI, 56C stress
T14 construct: Q92C-G134C, A466L, S473L, A480L
Description: as §1, §2

PIV1051 [15] = biological target: T15, PIV1051 (PIV1); assay: BLI, 56C stress
T15 construct: Q92C-G134C, A466V, S473V, A480V
Description: as §1, §2

PIV1052 [16] = biological target: T1, PIV1052; assay: BLI, 53C stress
Description: as §1, §2

PIV1053 [17] = biological target: T2, PIV1053; assay: BLI, 53C stress
Description: as §1, §2

PIV1063 = biological target: T16, PIV1063 (PIV1); assay: BLI, 53C stress
T16 construct: A466L, S473L, A480L, Q92A, G134L
Description: as §1, §2

PIV1066 = biological target: T17, PIV1066 (PIV1); assay: BLI, 53C stress
T17 construct: A466I, S473I, A480L, Q92L, G134A
Description: as §1, §2

PIV1060 [18] = biological target: T3, PIV1060; assay: BLI, 53C stress
Description: as §1, §2

PIV1049 [19] = biological target: T4, PIV1049; assay: BLI, 53C stress
Description: as §1, §2

PIV1050 [20] = biological target: T5, PIV1050; assay: BLI, 53C stress
Description: as §1, §2

PIV1061 [21] = biological target: T6, PIV1061; assay: BLI, 53C stress
Description: as §1, §2

PIV1054 [22] = biological target: T7, PIV1054; assay: BLI, 53C stress
Description: as §1, §2

PIV1065 = biological target: T18, PIV1065 (PIV1); assay: BLI, 53C stress
T18 construct: F113G, F114S, Q92C-G134C, A466I, S473I
Description: as §1, §2

PIV1055 [23] = biological target: T8, PIV1055; assay: BLI, 53C stress
Description: as §1, §2

[24] = biological target: T19, PIV1 F literature prefusion comparison (PIV1); assay: BLI, 53C stress
T19 construct: F113G, F114S, A466I, S473I (Stewart-Jones et al. 2018)
Description: as §1, §2

PIV1062 = biological target: T20, PIV1062 (PIV1); assay: BLI, 53C stress
T20 construct: F113G, F114S, A466L, S473L, A480L, Q92A, G134L
Description: as §1, §2

PIV1068 [25] = biological target: T9, PIV1068; assay: BLI, 53C stress
Description: as §1, §2

PIV1067 [26] = biological target: T10, PIV1067; assay: BLI, 53C stress
Description: as §1, §2

PIV1058 [27] = biological target: T11, PIV1058; assay: BLI, 53C stress
Description: as §1, §2

PIV1059 [28] = biological target: T12, PIV1059; assay: BLI, 53C stress
Description: as §1, §2

PIV1047 = biological target: T21, PIV1047 (PIV1); assay: BLI, 53C stress
T21 construct: F113G, F114S, Q92C-G134C, A466L, S473L, A480L
Description: as §1, §2

PIV1056 [29] = biological target: T13, PIV1056; assay: BLI, 53C stress
Description: as §1, §2

PIV1057 = biological target: T22, PIV1057 (PIV1); assay: BLI, 53C stress
T22 construct: A466L, S473L, A480L, Q92A, G134A
Description: as §1, §2

PIV1048 [30] = biological target: T14, PIV1048; assay: BLI, 53C stress
Description: as §1, §2

PIV1051 [31] = biological target: T15, PIV1051; assay: BLI, 53C stress
Description: as §1, §2

PIV1064 = biological target: T23, PIV1064 (PIV1); assay: BLI, 53C stress
T23 construct: F113G, F114S, Q92C-G134C, A466I, S473I, A480L
Description: as §1, §2

hMPV119 = biological target: T24, hMPV119 (hMPV B, UniProt Q6WB98 19-102); assay: BLI, 63C stress
T24 construct: T49I, T150C-R156C, A459P
Description: Conformation integrity of hMPV B F protein mutants were evaluated by a thermal stress experiment. Crude cell culture supernatants were normalized based on the results of the titer quantitation and then incubated for 1 hour at room temperature and two higher temperatures. For the testing of hMPV B single mutants, the two temperatures were 53° C. and 56° C. After the incubation, the protein mutants were probed with prefusion specific monoclonal antibody hMPV-2 by OCTET HTX. Anti-Human IgG Fc Capture (AHC) biosensors were first equilibrated in PB before being dipped into more PB for to establish the initial baseline. Biosensors were incubated with hMPV-2 before being equilibrated in PB to establish the experimental baseline. The mAb-bound biosensors were then dipped into the thermal stresses cell culture supernatants for 5 minutes.

B1: PIV1-8 mAb (antibody, V domains shown)
VH: QVQLVQSGAEVKKPGSSVKVSCEASGGTFSNYVISWVRQAPGQGLEWMGGIIPVFATAKYAQKFQGRVTIIADQSTNTAYLELSSLRSDDTAVYFCASVDSGGTWWDAFAIWGQGTMVTVSS
VL: QAVVTQPRSVSGSPGQAVTISCTGTSSDVGGYNYVSWYQHHPGKAPKLIIYDVTKRPSGVPDRFSGSKSGNTASLTISGLQTEYEADYYCCSYAGSYTLVFGGGTKLTVLG
notes: human IgG1; also called hPIV1-8 mAb; hPIV1-8
Response Shift (PIV1052 [1]): -0.094 nm | Response Shift (PIV1053 [2]): 0.776 nm | Response Shift (PIV1060 [3]): 0.597 nm | Response Shift (PIV1049 [4]): 0.294 nm | Response Shift (PIV1050 [5]): 0.695 nm | Response Shift (PIV1061 [6]): 0.526 nm | Response Shift (PIV1054 [7]): 0.723 nm | Response Shift (PIV1055 [8]): 0.682 nm | Response Shift (PIV1068 [9]): 0.559 nm | Response Shift (PIV1067 [10]): 0.728 nm | Response Shift (PIV1058 [11]): 0.543 nm | Response Shift (PIV1059 [12]): 0.784 nm | Response Shift (PIV1056 [13]): 0.751 nm | Response Shift (PIV1048 [14]): 0.71 nm | Response Shift (PIV1051 [15]): 0.322 nm | Response Shift (PIV1052 [16]): -0.026 nm | Response Shift (PIV1053 [17]): 0.901 nm | Response Shift (PIV1063): -0.036 nm | Response Shift (PIV1066): 0.722 nm | Response Shift (PIV1060 [18]): 0.671 nm | Response Shift (PIV1049 [19]): 0.883 nm | Response Shift (PIV1050 [20]): 0.907 nm | Response Shift (PIV1061 [21]): 0.648 nm | Response Shift (PIV1054 [22]): 0.826 nm | Response Shift (PIV1065): 0.816 nm | Response Shift (PIV1055 [23]): 0.787 nm | Response Shift [24]: 0.646 nm | Response Shift (PIV1062): 0.714 nm | Response Shift (PIV1068 [25]): 0.65 nm | Response Shift (PIV1067 [26]): 0.896 nm | Response Shift (PIV1058 [27]): 0.704 nm | Response Shift (PIV1059 [28]): 0.903 nm | Response Shift (PIV1047): 0.862 nm | Response Shift (PIV1056 [29]): 0.805 nm | Response Shift (PIV1057): 0.808 nm | Response Shift (PIV1048 [30]): 0.783 nm | Response Shift (PIV1051 [31]): 0.744 nm | Response Shift (PIV1064): 0.897 nm

B2: hMPV-2 mAb (antibody, V domains shown)
VH: QVQLQQSGAEVKKPGASVKVSCKASGYTFTSYGISWVRQAPGQGLEWMGWISGYNGNTNYAQTFQGTFTMTTDTSTSTAYMELRRLRSGDTAVYYCARDRYYASGSYNGMDVWGQGTTVTVSS
VL: QSALTQPPSASGAPGQRVTVSCSGSSSNVGSSSVYWYQQLPGTAPKLLIYRNNQRPSGVPDRFSGSKSGTSASLAISGLRSEDEADYYCAAWDDSLSGWVFGGGTKLTVLG
notes: human IgG1
Response Shift (hMPV119): 0.017 nm
